Laboratory results taken from article PMC7693034, “Identification of Amino Acid Residues Responsible for C−H Activation in Type‐III Copper Enzymes by Generating Tyrosinase Activity in a Catechol Oxidase” (Angewandte Chemie (International Ed. in English), 2020).
Substitutions are numbered along the chain they refer to. Names and notes keep the numbering of the source.

T1: CgAUS (aurone synthase from Coreopsis grandiflora) (Coreopsis grandiflora, UniProt A0A075DN54, C182S)
T1 construct: recombinant from E. coli, purified to homogeneity
T1 sequence (A0A075DN54 86-602 C182S): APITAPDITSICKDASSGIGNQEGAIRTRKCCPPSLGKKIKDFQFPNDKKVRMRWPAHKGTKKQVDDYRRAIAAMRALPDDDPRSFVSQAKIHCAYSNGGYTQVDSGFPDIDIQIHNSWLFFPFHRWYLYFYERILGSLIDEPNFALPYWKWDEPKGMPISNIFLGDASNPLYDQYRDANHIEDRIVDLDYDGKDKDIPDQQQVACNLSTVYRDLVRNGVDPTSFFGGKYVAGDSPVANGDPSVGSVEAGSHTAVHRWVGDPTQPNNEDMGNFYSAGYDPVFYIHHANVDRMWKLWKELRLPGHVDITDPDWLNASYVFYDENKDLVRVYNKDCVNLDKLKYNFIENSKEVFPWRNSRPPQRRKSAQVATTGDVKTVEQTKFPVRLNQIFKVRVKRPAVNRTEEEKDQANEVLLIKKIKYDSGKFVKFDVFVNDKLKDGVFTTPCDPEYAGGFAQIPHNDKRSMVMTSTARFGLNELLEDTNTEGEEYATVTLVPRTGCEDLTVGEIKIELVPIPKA

T2: CgAUS (aurone synthase from Coreopsis grandiflora) (Coreopsis grandiflora, UniProt A0A075DN54)
T2 construct: recombinant from E. coli, purified to homogeneity
T2 sequence (A0A075DN54 86-602): T1 sequence (A0A075DN54 86-602 C182S) with S97C

T3: CgAUS (aurone synthase from Coreopsis grandiflora) (Coreopsis grandiflora, UniProt A0A075DN54, R342D)
T3 construct: recombinant from E. coli, purified to homogeneity
T3 sequence (A0A075DN54 86-602 R342D): T1 sequence (A0A075DN54 86-602 C182S) with S97C, R257D

T4: CgAUS (aurone synthase from Coreopsis grandiflora) (Coreopsis grandiflora, UniProt A0A075DN54, T338D/R342D)
T4 construct: recombinant from E. coli, purified to homogeneity
T4 sequence (A0A075DN54 86-602 T338D/R342D): T1 sequence (A0A075DN54 86-602 C182S) with S97C, T253D, R257D

T5: CgAUS (aurone synthase from Coreopsis grandiflora) (Coreopsis grandiflora, UniProt A0A075DN54, T338D)
T5 construct: recombinant from E. coli, purified to homogeneity
T5 sequence (A0A075DN54 86-602 T338D): T1 sequence (A0A075DN54 86-602 C182S) with S97C, T253D

T6: CgAUS (aurone synthase from Coreopsis grandiflora) (Coreopsis grandiflora, UniProt A0A075DN54, C182S/T338D/R342D)
T6 construct: recombinant from E. coli, purified to homogeneity
T6 sequence (A0A075DN54 86-602 C182S/T338D/R342D): T1 sequence (A0A075DN54 86-602 C182S) with T253D, R257D

B1: CgAUS (aurone synthase from Coreopsis grandiflora) (Coreopsis grandiflora; C182S) (protein)
chain: T1 sequence (A0A075DN54 86-602 C182S)
notes: recombinant from E. coli, purified to homogeneity
B2: CgAUS (aurone synthase from Coreopsis grandiflora) (Coreopsis grandiflora; T338D) (protein)
chain: T1 sequence (A0A075DN54 86-602 C182S) with S97C, T253D
notes: as for B1
B3: CgAUS (aurone synthase from Coreopsis grandiflora) (Coreopsis grandiflora; R342D) (protein)
chain: T1 sequence (A0A075DN54 86-602 C182S) with S97C, R257D
notes: as for B1
B4: CgAUS (aurone synthase from Coreopsis grandiflora) (Coreopsis grandiflora; R342D/T338D) (protein)
chain: T1 sequence (A0A075DN54 86-602 C182S) with S97C, T253D, R257D
notes: as for B1
B5: CgAUS (aurone synthase from Coreopsis grandiflora) (Coreopsis grandiflora; C182S/R342D/T338D) (protein)
chain: T1 sequence (A0A075DN54 86-602 C182S) with T253D, R257D
notes: as for B1

Experiments:
[1] = target: T1, CgAUS (aurone synthase from Coreopsis grandiflora); assay: enzyme kinetics, diphenolase activity; format: biochemical; conditions: type-III copper enzyme; read-out: Dopamine / K m
Excerpt: (§1) enzyme kinetics, diphenolase activity on CgAUS (aurone synthase from Coreopsis grandiflora)

[2] = target: T2, CgAUS (aurone synthase from Coreopsis grandiflora); assay: enzyme kinetics, diphenolase activity; format: biochemical; conditions: type-III copper enzyme, copper content 46.1%; read-out: Dopamine / K m
Excerpt: as §1

[3] = target: T3, CgAUS (aurone synthase from Coreopsis grandiflora); assay: enzyme kinetics, diphenolase activity; format: biochemical; conditions: type-III copper enzyme; read-out: Dopamine / K m
Excerpt: as §1

[4] = target: T4, CgAUS (aurone synthase from Coreopsis grandiflora); assay: enzyme kinetics, diphenolase activity; format: biochemical; conditions: type-III copper enzyme; read-out: Dopamine / K m
Excerpt: as §1

[5] = target: T5, CgAUS (aurone synthase from Coreopsis grandiflora); assay: enzyme kinetics, diphenolase activity; format: biochemical; conditions: type-III copper enzyme; read-out: Dopamine / K m
Excerpt: as §1

[6] = target: T6, CgAUS (aurone synthase from Coreopsis grandiflora); assay: enzyme kinetics, diphenolase activity; format: biochemical; conditions: type-III copper enzyme; read-out: Dopamine / K m
Excerpt: as §1

[7] = substrate: NCCc1ccc(O)cc1; assay: enzyme kinetics, monophenolase activity; format: biochemical, Coreopsis grandiflora; conditions: type-III copper enzyme
Excerpt: enzyme kinetics, monophenolase activity on CgAUS (aurone synthase from Coreopsis grandiflora)

Molecule | Km [7] | kcat [7] | further results
NCCc1ccc(O)c(O)c1 [dopamine] |  |  | Km [1]: 1260 ± 40 µM; Km [2]: 8630 ± 280 µM; Km [3]: 1260 ± 130 µM; Km [4]: 240 ± 20 µM; Km [5]: 1930 ± 120 µM; Km [6]: 60 µM
B1 | 3590 ± 330 µM | 0.55 ± 0.04 s⁻¹ | 
B2 | 30900 ± 7270 µM | 2.14 ± 0.16 s⁻¹ | 
B3 | 4010 ± 290 µM | 8.26 ± 0.48 s⁻¹ | 
B4 | 1090 ± 90 µM | 9.48 ± 0.55 s⁻¹ | 
B5 | 20 ± 0 µM | 6.52 ± 0.39 s⁻¹ | 
